Measurements taken from the RNAGym collection of RNA variant scans (doi:10.1073/pnas.2313332121).

B1: TPR t1 (parent)
chain: GACCAAUCUGCCCUCAGAGCUCGAGAACAUCUUCGGAUGCAGAGGAGGCAGGCUUCGGUGGCGCGAUAGCGCCAACGUCCUCAACCUCCAAUGCAUCCCACCACAUGAUGAUGCCUGAAGAGCCUUGGUUUUUUG

Variants of: B1
Experiment: polymerase ribozyme fitness, log enrichment relative to wild type (log ratio); higher = more active; in vitro selection for triplet polymerase activity
Procedure, shortened: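 Genotype fitness is the logarithm of its enrichment divided by wild-type enrichment, using inverse-variance-weighted averages of replicates. That logarithm is base 2. Enrichment was measured by Illumina sequencing of input and output libraries from one triplicate in vitro selection round, with frozen incubation at −7 °C, on PCR-built, transcribed mutant libraries of each subunit of a heterodimeric triplet polymerase ribozyme, retaining genotypes with ≥10 input reads and ≥1 read per output.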

Row | Variant | polymerase ribozyme fitness (log ratio)
1 | GACCAAUCUGCCCUCAAAGCUCGAGAACAUCUUCGGAUGCAUAGGAGGCAGGCUUCGGUGGCGCGAUAGCGCCAACGUCCUCAACCUCCAAUGCAUCCCACCACAUGAUGAUGCCUGAAGAGCCUUGGAUUUUUG [G17A G42U U129A] | -4.5
2 | GACCAAUCUGCCCUCAAAGCUCGAGAACAUCUUCGGAUGCAGAGGAAGCAGGCUUCGGUGGCGCGAUAGCGCCAACGUCCUCAACCUCCAAUGCAUCCCACCACAUGAUGUUGCCUGAAGAGCCUUGGUUUUUUG [G17A G47A A111U] | -5.85
3 | GACCAAUCUGCCCUCAAAGCUCGAGAACAUCUUCGGAUGCAGAGGAGCCAGGCUUCGGUGGCGCGAUAGCGCCAACGUCCUCAACCUCCAAUGCAUCCCACCACAUGAUGAUGCCUGAAGAGCAUUGAUUUUUUG [G17A G48C C124A G128A] | -3.31
4 | GACCAAUCUGCCCUCAAAGCUCGAGAACAUCUUCGGAUGCAGAGGAGUCAGGCUUCCGUAGCGCGAUAGCGCCAACGUCCUCAACCUCCAAUGCAUCCCACCACAUGAUGAUGCCUGAAGAGCCUUGGUUUUUUG [G17A G48U G57C G60A] | -2.98
5 | GACCAAUCUGCCCUCAAAGCUCGAGAACAUCUUCGGAUGCAGAGGAGGCAGACUUCGGUGGCGCGAUAGCGCCAACGUCCUCAACCUCCAAUGCAUCCCACCACAUGAUGAUGCCUGGAGAGCCUUGGUUUUUUG [G17A G52A A118G] | -4.15
6 | GACCAAUCUGCCCUCAAAGCUCGAGAACAUCUUCGGAUGCAGAGGAGGCAGGCUUCCGUGGCGCGAUAGCGCCAACGUCCUCAACCUCCAAUGCAUCCCACCACAUGAUGAUGCCUGAAGAGCCUUGGUUUUUUG [G17A G57C] | -2.86
7 | GACCAAUCUGCCCUCAAAGCUCGAGAACAUCUUCGGAUGCAGAGGAGGCAGGCUUCGGUGACGCGAUAGCGCCAACGUCCUCAACCUCCAAUGCAUCCCACCACAUGAUGAUGCCUGAAGAGCUUUGGUUUUUUG [G17A G61A C124U] | -2.13
8 | GACCAAUCUGCCCUCAAAGCUCGAGAACAUCUUCGGAUGCAGAGGAGGCAGGCUUCGGUGGCACGAUAGCGCCAACGUCCUUAACCUCCAAUGCAUCCCACCACAUGAUGAUGCCUGAAGAGCCUUGGUUUUUUG [G17A G63A C82U] | -5.43
9 | GACCAAUCUGCCCUCAAAGCUCGAGAACAUCUUCGGAUGCAGAGGAGGCAGGCUUCGGUGGCCCGAUAGCGCCAACGUCCUCAACCUCCAAUGCAUCCCACCACAUGAAGAUGCAUGAAGAGCCUUGGUUUUUUG [G17A G63C U109A C115A] | -6.25
10 | GACCAAUCUGCCCUCAAAGCUCGAGAACAUCUUCGGAUGCAGAGGAGGCAGGCUUCGGUGGCGCGAUAGCACCAACGUCCUCAACCUCCAAUGCAUCCCACCACAUGAUGAUGCCUGAAGAGCCUUGGUUUUUUG [G17A G71A] | -4.07
11 | GACCAAUCUGCCCUCAAAGCUCGAGAACAUCUUCGGAUGCAGAGGAGGCAGGCUUCGGUGGCGCGAUAGCAUCAACGUCCUCAACCUCCAAUGGAUCCCACCACAUGAUGAUGCCUGAAGAGGCUUGGUUUUUUG [G17A G71A C72U C94G C123G] | -5.54
12 | GACCAAUCUGCCCUCAAAGCUCGAGAACAUCUUCGGAUGCAGAGGAGGCAGGCUUCGGUGGCGCGAUAGCGCCAACGUCCUCAACCUCCAAUUCAUCCCACCACAUGAUGAUGCCUGAAGAGCCUUGGUUUUUUG [G17A G93U] | -4.76
13 | GACCAAUCUGCCCUCAAAGCUCGAGAACAUCUUCGGAUGCAGAGGAGGCAGGCUUCGGUGGCGCGAUAGCGCCAACGUCCUCAACCUCCAAUGCAUCCCACCACAUGAUGAUGCCUGAAGAGCCUUGCUUUUUUG [G17A G128C] | -5.29
14 | GACCAAUCUGCCCUCAAAGCACGAGAACAUCUUCGGAUCCAGAGGAGGCAGGCUUUGGUGGCGCGAUAGCGCCAACGUCCUCAACCUCCAAUGCAUCCCACCACAUGAUGAUGCCUGAAGAGCCUUGGUUUUUUG [G17A U21A G39C C56U] | -4.02
15 | GACCAAUCUGCCCUCAAAGCACGAGAACAUCUUCGGAUGCAGACGCGGCAGGCUUCGGUGGCGCGAUAGCGCGAACGUCCUCAACCUCCAAUGCAUCCCACCACAUGAUGAUGCCUGAAGAGCCUUGGUUUUUUG [G17A U21A G44C A46C C73G] | -5.53
16 | GACCAAUCUGCCCUCAAAGCUCGAGAACAUCUUCGGAAGCAGAGGAGGCAGGCUUCGGGGGCGCGAUAGCGCCAACGUCCUCAACCUCCAAUGCAUCCCACCACAUGAUGAUGCUUUAAGAGCCUUGGUUUUUUG [G17A U38A U59G C115U G117U] | -3.04
17 | GACCAAUCUGCCCUCACCGCUCGAGAACAUCUUCGGAUGCAGAGGAGGCAGGCUUCGGUGGCGCGAUAGCGCCAACGUCCUCAACCUCCAAUGCAUCCCACCACAUGAUGAUGCCUGAAGAGCCUUGGUUUUUUG [G17C A18C] | -4.12
18 | GACCAAUCUGCCCUCACAGCUCGAGGACAUCUUCGGUUGCAGAGGAGGCAGGGUUCAGUGGCGCGAUAGCGCCAACGUCCUCAACCUCCAGUUCAUCCCACCACAUGAUGUUGCCUGAAGAGCCUUGGGUUUUUG [G17C A26G A37U C53G G57A A91G G93U A111U U129G] | -6.27
19 | GACCAAUCUGCCCUCACAGCUCGAGAACAUCUUCGGUUGCAGAGGAGGCAGGCGUCGGUGGCGCGAUAGCGCCAACGUCCUCAACCUCCAAUGCAUCCCACCACAUGAUGACGCCUGAAGAGCCUUGGUUUUUUG [G17C A37U U54G U112C] | -3.41
20 | GACCAAUCUGCCCUCACAGCUCGAGAACAUCUUCGGAUGCGGAGGAGGCAGGCUUCGGUGGCGCGAUAGCGCCAACGUCCUCAACCUCCAUUGCAUCCCACCACAUGAUGAUGCCUGAAGAGCCUUGGUUUUUUG [G17C A41G A91U] | -4.31
21 | GACCAAUCUGCCCUCACAGCUCGAGAACAUCUUCGGAUGCUGAGGAGGCAUGCUUCGGUGGCGUGAUAGCGCCAACGUCCUCAACCUCCAAUGCAUCCCACCAUAUGAUGAUGCCUGAAAAGCCUUGGUUUUUUG [G17C A41U G51U C64U C104U G120A] | -6.91
